Laboratory results as given in PMC10236585.

Biological target: mu-FGF5-Flag (FGF5 p. L191S) (rabbit)
Experiment: co-IP; HEK293T cells co-transfected with FGFR1 and FGF5-Flag or mu-FGF5-Flag; lysed 48 h later (50 mM Tris pH 7.4, 150 mM NaCl, 0.2 mM EDTA, 2 mM EGTA, 0.5% Igepal CA-630, 10% glycerol); anti-Flag IP resin overnight at 4 °C; immunoblot with anti-FGFR1 and anti-Flag; densitometry of FGFR1 in the IP normalised to FGF5 or mu-FGF5

## FGFR1 (fibroblast growth factor receptor 1)
  fold decline in binding ability to FGFR1 against FGF5: 0.49 fold
